In the assay the test system is perfused rat colon. Nature of the assay: Hormone release in the isolated perfused rat colon. From the text: FIG. 14. Recombinant RUCILP2 stimulates glucagon like peptide-1 (GLP-1) secretion in perfused rat colon when RUCILP2 is perfused through the luminal route. Left, GLP-1 secretion from the isolated perfused rat colon in the presence of RUCILP2, means±SEM, n=6 in each group. Right, baseline subtracted total GLP-1 output during 10-min (minutes 12-21) luminal infusions. **, p<0.01 using Student's t test.
FIG. 15. Recombinant RUCILP2 stimulates Peptide-YY (PYY) secretion in perfused rat colon when RUCILP2 is perfused through the luminal route. Left, PYY secretion from the isolated perfused rat colon in the presence of RUCILP2, means±SEM, n=6 in each group. Right, baseline subtracted total PYY output during 10-min (minutes 12-21) luminal infusions. **, p<0.01 using Student's t test.
FIG. 16. Recombinant RUCILP2 stimulates somatostatin secretion in perfused rat colon when RUCILP2 is perfused through the luminal route. Left, Somatostatin secretion from the isolated perfused rat colon in the presence of RUCILP2, means±SEM, n=6 in each group. Right, baseline subtracted total Somatostatin output during 10-min (minutes 12-21) luminal infusions. *, p<0.05 using Student's t test.
Animals: Male Wistar rats (˜250 g) were obtained from Janvier (Le Genest-Saint-Isle, France) and housed with two to four rats per cage. Rats were allowed one week of acclimatization kept on a 12:12 h light/dark cycle with ad libitum access to water and standard chow.
Isolation and perfusion of the proximal rat colon: At the day of experiment, non-fasted rats were anaesthetized with a subcutaneous injection of Hypnorm/Midazolam (0.0158 mg fentanyl citrate+0.5 mg fluanisone+0.25 mg midazolam/100 g). When lack of reflexes was established, rats were placed on a heating plate (37° C.) and the abdominal cavity opened. […] A plastic tube was placed in the lumen of the colon, and the colon was gently flushed with isotonic saline (room temperature) to remove luminal contents. Throughout the experimental protocol, a constant luminal flow of saline was applied via a syringe pump (0.15 ml/min). […] A metal catheter was inserted into vena portae to collect the venous effluent. […] As an indicator of health of the colon, perfusion pressure was monitored throughout the experiment. […]
Hormone measurement: Peptide hormones were measured using in-house radioimmunoassays: total GLP-1 (the sum of 7-36NH2, 9-36NH2 and potential mid-terminal cleaved fragments) was measured using a C-terminal specific antibody targeting amidated forms of GLP-1 (code no. 89390). Total PYY (PYY1-36+PYY3-36) was measured with a porcine antiserum (cat. no T-4093; Bachem). Somatostatin was measured using a side-viewing antibody (code no. 1758-5), detecting all bioactive forms of somatostatin.

The values below come from patent publication US20240336661A1, “PEPTIDES DERIVED FROM RUMINOCOCCUS TORQUES” (University of Copenhagen, priority 2021, published 2024).

B1: RUCILP2: 87 amino acid irisin-like polypeptide cleaved from the Ruminococcus torques FNDC5-like protein RUMTOR_00181; recombinant, 6-His-tagged from E. coli (protein)
chain: APVDVKVSEITETSAKASWKNAADGKEAAGYNVYVDGVKLNKELLTEASCGLTNLKAETTYFVEVTAVDAAGNESVKSEKVTFKTLK
modifications: 6-His tag; Ruminococcus torques
notes: 87 amino acid irisin-like polypeptide cleaved from the Ruminococcus torques FNDC5-like protein RUMTOR_00181; recombinant, 6-His-tagged from E. coli
Regarding B1, the “gut luminal release of Glucagon-like-peptide-2 (GLP-2)” value (luminal infusion) was “stimulatory effects”. Under “luminal perfusion”, the GLP-1 secretion entry is reported as “stimulates”, the “Peptide-YY (PYY) secretion” value is given as “stimulates” and the somatostatin secretion result is “stimulates”.
